B1: scFv clone No. 7, displayed on phage (scFv)
scFv: AQAAELDIVLTQSPAIMSASPGEKVTISCSASSSVSYMYWYQQKPGQPPRLLIYLVSNLESGVPARFSGSGSGTDFTLNIHPVEEEDAATYYCQQYHSYPPTFGAGTKLEIKSSGGGGSGGGGGGSSRSSLEVKLVESGPELKKPGETVKISCKASGYTFTDYSMHWVNQAPGKGLKWMGWINTETGEPSYADDFKGRFAFSLETSASTAYLQINNLKNEDTATYFCATDYGDYFDYWGQGTTLTVSSAKTTPPSVTSGQAGQ
B2: scFv clone No. 4, displayed on phage (scFv)
scFv: AQAAELDIVLTQSPAIMSASPGEKVTISCSASSSVGYMYWYQQKPGSSPKPWIYRPSNLASGVPARFSGSGSGTSYSLTISSMEAEDAATYYCQQYHSYPPTFGAGTKLELKSSGGGGSGGGGGGSSRSSLEVKLVESGPELKKPGETVKISCKASGYTFTDYSMHWVNQAPGKGLKWMGWINTETGEPSYADDFKGRFAFSLETSASTAYLQINNLKNEDTATYFCATDYGDYFDYWGQGTTLTVSSAKTTPPSVTSGQ
B3: scFv clone No. 5, displayed on phage (scFv)
scFv: AQAAELDIVLTQSPAIMSASPGEKVTISCSASSSVSYMYWYQQKPGSSPKPWIYRTSNLASGVPARFSGSGSGTSYSLTISSMEAEDAATYYCQQYHSYPPTFGAGTKLELKSSGGGGSGGGGGGSSRSSLEVKLVESGPELKKPGETVKISCKASGYTFTDYSMHWVNQAPGKGLKWMGWINTETGEPSYADDFKGRFAFSLETSASTAYLQINNLKNEDTATYFCATDYGDYFDYWGQGTTLTVSSAKTTPPSVTSGQAGQ
B4: scFv clone No. 10, displayed on phage (scFv)
scFv: AQAAELDIVLSQSPAIMSASPGEKVTISCSASSSVSYMYWYQQKPGSPPKPWIYRTSNLASGVPARFSGSGSGTSYSLTISSMEAEDAATYYCQQYHSYPPTFGAGTKLELKSSGGGGSGGGGGGSSRSSLEVKLVESGPELKKPGETVKISCKASGYTFTDYSMHWVNQAPGKGLKWMGWINTETGEPSYADDFKGRFAFSLETSASTAYLQINNLKNEDTATYFCATDCGDYFDYWGQGTTLTVSSAKTTPPSVTSGQAGQ
B5: scFv clone No. 6, displayed on phage (scFv)
scFv: AQAAELDIVLTQSPAIMSASPGEKVTISCSASSSVSYMYWYQQKPGSSPKPWIYRPSNLASGVPARFSGSGSGTSYSLTISSMEAEDAATYYCQQYHSYPPTFGAGTKLELKSSGGGGSGGGGGGSSRSSPEVMLVESGPELKKPGETVKISCKASGYTFTDYSMHWVNQAPGKGLKWMGWINTETGEPSYADDFKGRFAFSLETSASTAYLQINNLKNEDTATYFCATDYGDYFDYWGQGTTLTVSSAKTTPPSVTSGQAGQ
B6: scFv clone No. 23, displayed on phage (scFv)
scFv: AQAAELDIVLTQSPAIMSASPGEKVTISCSASSSVSYMYWYQQKPGSSPKPWIYRPSNLASGVPARFSGSGSGTSYSLTISSMEAEDAATYYCQQYHSYPPTFGAGTKLELKSSGGGGSGGGGGGSSRSSLEVQLVESGPELKKPGETVKISCKASGYTFTDYSMHWVNQAPGKGLKWMGWINTETGEPSYADDFKGRFAFSLETSASTAYLQINNLKNEDTATYFCATDYGDYFDYWGQGTTLTVSSAKTTAPSVTSGQAGQ
B7: scFv clone No. 22, displayed on phage (scFv)
scFv: AQAAELDIVLTQSPAIMSASPGEKVTISCSASSSVSYMYWYQQKPGSSPKPWIYRPSNLASGVPARFSGSGSGTSYSLTISSMEAEDAATYYCQQYHSYPPTFGAGTKLELKSSGDGGSGGGGGGSSRSSLEVKLVESGPELKKPGETVKISCKASGYTFTDYSMHWVNQAPGKGLKWMGWINTETGEPSYADDFKGRFAFSLETSASTAYLQINNLKNEDTATYFCATDYGDYFDYWGQGTTLTVSSAKTTAPSVTSGQAGQ
B8: scFv clone No. 11, displayed on phage (scFv)
scFv: AQAAELDIVLSQSPAIMSASPGEKVTISCSASSSVSYMYWYQQKPGSSPKPWIYRTSNLASGVPARFSGSGSGTSYSLTISSMEAEDAATYYCQQYHSYPPTFGAGTKLELKSSGGGGSGGGGGGSSRSSLEVKLVESGPELKKPGETVKISCKASGYTFTDYSMHWVNQAPGKGLKWMGWINTETGEPSYADDFKGRFAFSLETSASTAYLQINNLKNEDTATYFCATDYGDYFDYWGQGTTLTVSSAKTTPPSVTSGQAGQ
B9: scFv clone No. 8, displayed on phage (scFv)
scFv: AQAAELDIVLTQSPAIMSASPGEKVTISCSASSSVSYMYWYQQKPGSSPKPWIYRPSNLASGVPARFSGSGSGTSYSLTISSMEAEDAATYYCQQYHSYPPTFGAGTKLELKSSGGGGSGGGGGGSSRSSLEVHLVESGPELKKPGETVKISCKASGYTFTDYSMHWVNQAPGKGLKWMGWINTETGEPSYADDFKGRFAFSLETSASTAYLQINNLKNEDTATYFCATDYGDYFDYWGQGTTLTVSSAKTTPPSVTSGQAGQ
B10: monoclonal antibody produced by Hybridoma Clone 7 (antibody, V domains shown)
VH: EVKLVESGPELKKPGETVKISCKASGYTFTDYSMHWVNQAPGKGLKWMGWINTETGEPSYADDFKGRFAFSLETSASTAYLQINNLKNEDTATYFCATDYGDYFDYWGQGTTLTVSS
VL: DIVLSQSPAIMSASPGEKVTISCSASSSVSYMYWYQQKPGSSPKPWIYRTSNLASGVPARFSGSGSGTSYSLTISSMEAEDAATYYCQQYHSYPPTFGAGTKLELK

The first assay has as its target human prominin-1 expressed in E. coli as a 6*HIS fusion protein (human) (UniProt O43490). Put plainly: phage ELISA on plate-coated human prominin-1, HRP-conjugated anti-M13. Background: An ELISA detects its analyte on a solid surface through an enzyme-linked reagent.
B1 came in with an A450 of 0.9 A450.
The molecule B2 came in with an A450 of 1 A450.
With B3, the A450 amounted to 1.3 A450.
B4 showed an A450 of 1.2 A450.
B5 showed an A450 of 1.3 A450.
As to B6, the A450 was determined as 1.1 A450.
The molecule B7 registered an A450 of 1.2 A450.
On the same count and under the same terms, for B8 the value was 1.4 A450.
Regarding B9, the A450 is 1 A450.

The target is the same in the next assay. Put plainly: ELISA on plate-coated human prominin-1, hybridoma secreted antibody diluted at 1:2000.
B10 yielded an A450 of 1.9 A450.

(Values after patent publication US20130224202A1.)
